Series [1] concerns Botrytis cinerea. Nature of the series: Botrytis cinerea necrosis areas on treated vine leaves. Particulars: day 8, control 43 mm^2 (FIG. 12D). Format: in vivo, Botrytis cinerea on Vitis vinifera. An excerpt:
(§1) The present inventors also carried out tests aimed at determining the effects of exogenous application of the peptides of the invention, at picomolar and femtomolar concentrations, against the development of the necrotrophic fungus on Solanum melongena (eggplant) plants (FIG. 12C) and Vitis vinifera (vine) plants (FIG. 12D). […] The positive effect of the treatment was statistically significant from day 3 of inoculation of the pathogen to day 8 where values of 11 mm^2 were reached on the control leaves, unlike the treated leaves where values of 8.4 and 6.0 mm^2 were recorded on leaves treated with the peptides PS1-70 and PS1-120 at a concentration of 100 pM, and values of 6.2 and 4.10 mm^2 were recorded on leaves treated with said peptides at a concentration of 100 fM (FIG. 12C). Similar results were obtained on vine plants (FIG. 12D). The positive effect of the treatment was already statistically significant from day 1 of inoculation of the pathogen to day 8 where values of 43 mm^2 were reached on the control leaves, and values of 16.7 and 13.6 mm^2, respectively, were reached on leaves treated with the peptides PS1-70 and PS1-120 at a concentration of 100 pM, and values of 12 and 11.8 mm^2 were reached on leaves treated with said peptides at a concentration of 100 fM (FIG. 12D). Similar results were obtained on olive trees.

The subject of series [2] is Botrytis cinerea. Nature of the series: Botrytis cinerea necrosis areas on treated eggplant leaves. It is filed as in vivo, Botrytis cinerea on Solanum melongena. The conditions noted are these: day 8, control 11 mm^2 (FIG. 12C).
From the text: as §1

Series [3] relates to Alternaria alternata. In words: Alternaria alternata necrosis areas on treated tomato leaves. Format: in vivo. Particulars: 100 fM. The procedure:
(§2) For the performance of assays on the phytopathogenic Botrytis cinerea and Alternaria alternata fungi, the present inventors used spores of this microorganism obtained from cultures on solid PDA (Potato Dextrose Agar) sporulation substrate. The plates were inoculated with 20 μl of a conidial suspension at a concentration of 1×10^6 spores/ml and incubated for 15 days at 25° C. in the presence of diffused light, so as to obtain complete sporulation. The spores were then collected in 5 ml of sterile water and, in order to remove the mycelium, were filtered through glass wool, washed with sterile distilled water and collected by centrifugation at room temperature. The concentration of spores suitable for inoculation (10^5-10^7 spores/ml) was determined by the serial dilution method using a Burker cell counting chamber for spore counting.
(§3) The assay was carried out on a detached leaf by taking a compound leaf for each treated tomato plant and for each control plant. Each leaflet of the compound leaf was marked with 3 markers in order to guide the subsequent application of the spores and detection of the pathogen developing necrotic areas.
The present inventors also performed assays aimed at determining the effects of exogenous application of the peptides of the invention on tomato plants against the development of the necrotrophic Alternaria alternata fungus (FIG. 14).
The positive effect of the treatment was statistically significant from day 1 of inoculation of the pathogen to day 8 where values of 24 mm^2 were reached on the control leaves, unlike the treated leaves where values of 8.4 and 8.0 mm^2 were recorded on leaves treated with the peptides PS1-70 and PS1-120 at a concentration of 100 fM (FIG. 14A); and values of 17 mm^2 were recorded on the control leaves and values of 8.3 mm^2, 7.9 mm^2, 8.9 mm^2, and 7.8 mm^2 were recorded on leaves treated with the peptides PS1-70, SEQ ID NO.8, SEQ ID NO.3 and SEQ ID NO.5, respectively, at a concentration of 100 fM (FIG. 14B).

Series [4] relates to CAT2, SAM and APX2 genes. Nature of the series: Salt stress gene expression in tomato plants irrigated with 100 fM peptides. It is filed as in vivo. Particulars: femtomolar; for activation of salt stress-responsive genes: 8 days after irrigation, 0 mM NaCl (FIG. 18A1, B1, C1); for tolerance to salt / induction of responsive genes: irrigated 7 days with 150 mM NaCl (FIG. 18A2, B2, C2). The procedure: The analysis was carried out on the CAT2(A), SAM (B) and APX2 (C) genes. The asterisks indicate the statistical significance of the data by Student's t-test (*p<0.05; **p<0.01; ***p<0.001). […] An experiment was also set up to verify the efficiency of the peptides PS1-70, PS1-120 and SEQ ID NO.5, when administered at femtomolar concentrations, in promoting tolerance to a high salt stress condition.

Series [5] relates to B. cinerea. Format: cell-based, Botrytis cinerea. The procedure: 3, 5 and 8, and Trichoderma T22, (C) PS1-70 and PS1-120. The growth of the fungus was measured 24 hours after the addition of the peptides of the invention as the turbidity level of the medium (absorbance at 600 nm). The letters a, b indicate the statistical significance of the data (ANOVA), each letter representing a statistical group. Furthermore, as shown in FIGS. 22A and 22B, the growth of the B. cinerea fungus was not disrupted when the growth medium was added with the peptides PS1-70 and PS1-120 of the invention.

The subject of series [6] is Botrytis cinerea. In words: Botrytis cinerea necrosis areas on treated detached tomato leaves. It is filed as in vivo, Botrytis cinerea on Solanum lycopersicum. The procedure:
as §2, §3
The leaves were treated by applying 2 μl of a composition comprising the peptides PS1-70 and PS1-120 of the invention at a concentration of 100 pM, 100 fM or 1×PBS for the control leaves. After 6 hours, the time necessary for the perception of the peptides, the leaves were detached from the plant and inoculations with 10 μl of spore solution were carried out in the internerve spaces and near the previously marked points. Monitoring was carried out by measuring the necrosis areas (expressed in mm^2) 1, 3, 5, 8 days after inoculation of the pathogen. The necrosis areas recorded on the control leaves were much larger than those detected on plants treated with the peptides of the invention. This difference increased as a function of the time elapsed since inoculation. The resistance inducing effect of the picomolar treatment is already statistically significant from the first day of inoculation of the pathogen up to the eighth day where values of 33 mm^2 were reached on the control leaves, unlike the treated leaves where values not exceeding 18 mm^2 were recorded for both peptides (FIG. 12A).

Series [7] concerns B. cinerea. Nature of the series: Seed treatment: B. cinerea necrosis areas on leaves of plants born from treated tomato seeds. It is filed as in vivo, Botrytis cinerea on tomato. The conditions noted are these: leaves of 4-week-old plants born from seeds treated at 100 fM; day 8; control 11 mm^2 (FIG. 16). Here is the method: The mean necrosis areas were measured 1, 3 and 5 days after inoculation of the pathogen. The letters a, b indicate the statistical significance of the data (ANOVA), each letter representing a statistical group. The present inventors also assessed the protective effect conferred by the treatment with the peptides object of the invention directly on the seed. Tomato seeds were treated with a composition comprising the peptides at a concentration of 100 fM or with 1×PBS for the controls, allowed to dry and germinated in the dark on sterile adsorbent paper at 24° C. 4-week-old plant leaves were detached from the plant and inoculated with 10 μl of spore solution in the internerve spaces and near the previously marked points.

The mark [8] stands for this setting: day 8, control 24 mm^2 (FIG. 14A).
Where [9] appears, read: femtomolar, day 8, control 20 mm^2 (FIG. 12B).

B1: PS1-120: recombinant peptide contained in the amino-terminal region of the Prosystemin polypeptide, free of Systemin; expressed in E. coli (protein)
chain: MGTPSYDIKNKGDDMQEEPKVKLHHEKGGDEKEKIIEKETPSQDINNKDTISSYVLRDDTQEIPKMEHEEGGYVKEKIVEKETISQYIIKIEGDDDAQEKLKVEYEEEEYEKEKIVEKET
modifications: Peptide PS1-120
notes: recombinant peptide contained in the amino-terminal region of the Prosystemin polypeptide, free of Systemin; expressed in E. coli
On to B1, for which the necrosis areas in series [1] (100 pM) stood at 13.6 mm^2; in series [1] (100 fM) it was 11.8 mm^2; in series [2] (100 pM), 6.0 mm^2; in series [2] (100 fM), 4.10 mm^2; in series [3] (setting [8]), 8.0 mm^2; in series [6] (setting [9]), 5.19 mm^2. Moreover, the necrosis areas in series [7] is given as 7.4 mm^2. For the same molecule, the “activation of salt stress-responsive genes” value in series [4] was “able to activate a series of salt stress-responsive genes”. Also, the “tolerance to salt / induction of responsive genes” value in series [4] is “more salt-tolerant than the untreated control plants”. Further, in series [5], the “growth of the B. cinerea fungus” value is on record as “not disrupted”.

B2: PS1-70: recombinant peptide contained in the amino-terminal region of the Prosystemin polypeptide, free of Systemin; expressed in E. coli (protein)
chain: MGTPSYDIKNKGDDMQEEPKVKLHHEKGGDEKEKIIEKETPSQDINNKDTISSYVLRDDTQEIPKMEHEE
modifications: Peptide PS1-70
notes: as for B1
For B2, the necrosis areas in series [1] (100 pM) was found to be 16.7 mm^2; in series [1] (100 fM), 12 mm^2; in series [2] (100 pM), 8.4 mm^2; in series [2] (100 fM), 6.2 mm^2; in series [3] (day 8, control 17 mm^2 (FIG. 14B)) it was 8.3 mm^2; in series [3] (setting [8]) it was 8.4 mm^2. For the same molecule, the necrosis areas in series [6] (100 fM, day 8, control 11.72 mm^2 (FIG. 13)) was determined as 7.69 mm^2; in series [6] (setting [9]), 6.69 mm^2; in series [7] it was 7.1 mm^2. Besides, in series [4], the “activation of salt stress-responsive genes” value is given as “able to activate a series of salt stress-responsive genes”. In addition, the “tolerance to salt / induction of responsive genes” value in series [4] is given as “more salt-tolerant than the untreated control plants”. Further, in series [5], the “growth of the B. cinerea fungus” value is “not disrupted”.

These data come from US20230270119A1, “BIOSTIMULANT AND BIOPROTECTIVE PEPTIDES AND THEIR USE IN AGRICULTURE” (priority 2020, published 2023).
